Reference: paper PMC3637433 (The FEBS journal, 2013)
Read-outs that look alike come from different tables or passages of the source. Square brackets hold non-standard residues; d marks the D form. Ends that are not written are not given here. sY = N[C@@H](Cc1ccc(OS(=O)(=O)O)cc1)C(=O)O

Tests used:
RANTES = biological target: T1, RANTES (Homo sapiens, UniProt P13501, E89S); experiment: 1H-15N-HSQC NMR titration of U-15N-RANTES; format: binding; conditions: 293 K, pH 4.8; peptide up to 2.9 mM, 64 molar excess relative to RANTES; KD could not be extracted
T1 sequence (P13501 24-91 E89S): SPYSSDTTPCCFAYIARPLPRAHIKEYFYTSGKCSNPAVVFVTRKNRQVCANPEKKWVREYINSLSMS

[1] = biological target: CCR5 N-terminal peptide (Nt-CCR5) N-terminus (Homo sapiens) (UniProt P51681); conditions: cited from earlier work
Sequence of CCR5 N-terminal peptide (Nt-CCR5) N-terminus (Homo sapiens) (P51681 1-27): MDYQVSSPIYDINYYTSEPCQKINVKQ

[2] = biological target: RANTES (E66S mutant of human RANTES) (human); experiment: 1H-15N-HSQC, intensities of monomer and dimer cross-peaks
[3] = biological target: RANTES (E66S mutant of human RANTES) (human); experiment: as above; remark: listed apart in the source
[4] = biological target: RANTES (E66S mutant of human RANTES) (human); experiment: as above; remark: listed apart in the source
[5] = biological target: RANTES (E66S mutant of human RANTES) (human); experiment: as above; remark: listed apart in the source
[6] = biological target: RANTES (E66S mutant of human RANTES) (human); experiment: as above; remark: listed apart in the source
[7] = biological target: RANTES (E66S mutant of human RANTES) (human); experiment: NMR titration
[8] = biological target: RANTES (E66S mutant of human RANTES) (human); experiment: NMR titration; remark: listed apart in the source
[9] = biological target: RANTES (E66S mutant of human RANTES) (human); experiment: NMR titration; remark: listed apart in the source

## TRSQKEGLHYTSSSHFPYSQYQ [ECL2]
RANTES
  Saturation of RANTES chemical shift changes on titration: saturation was not achieved

## RANTES (from UniProt P13501)
[1]
  Kd: 1000 nM

## RANTES (E66S mutant of human RANTES) (ligand)
[2]
  ratio of monomer/dimer peak intensities, IM/ID: 0.13
[3]
  ratio of monomer/dimer peak intensities, IM/ID: 0.45
  stoichiometry N: 2
[4]
  ratio of monomer/dimer peak intensities, IM/ID: 1.57
[5]
  ratio of monomer/dimer peak intensities, IM/ID: 0.2
[6]
  ratio of monomer/dimer peak intensities, IM/ID: < 0.1

B1: Nt-CCR5 peptide (CCR5 residues 1-27), sulfated at Y10 and Y14 (peptide)
chain: MDYQVSSPI[sY]DIN[sY]YTSEPAQKINVKQ
[7]
  Kd: 100 µM
[8]
  Kd: 84 µM
[9]
  Kd: 16 µM
